In patent US20240368283A1 (published 2024):
Blank lines part the entries; values can stand above or below the binder they belong to.

Key:
[1] = biological target: T1, huFcγRIIβ (human, UniProt P31994 46-217); assay: SPR, antibody captured on protein A/G chip, receptor injected as analyte
T1 construct: also called huR2b; human FcγRIIβ (soluble antigen)
T1 sequence (looked up): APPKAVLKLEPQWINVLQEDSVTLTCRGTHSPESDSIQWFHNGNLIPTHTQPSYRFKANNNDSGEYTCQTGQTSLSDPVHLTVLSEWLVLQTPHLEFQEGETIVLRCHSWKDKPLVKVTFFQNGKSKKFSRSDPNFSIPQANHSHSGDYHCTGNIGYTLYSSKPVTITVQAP
Description: (§1) Example 21: Anti-FcγRIIβ antibodies were captured on protein A/G chips at 10 ug/mL, 1 ug/mL and 0.1 ug/mL concentrations (in duplicates). Each analyte binder was injected at 7 concentrations with 5-fold serial dilutions, with the starting concentration for FcγRs at 5 uM, and for PD-1 at 0.5 uM. […] Kinetics data was subsequently collected.

[2] = biological target: T2, CyR2b (monkey); assay: as above
T2 construct: also called monkey FcγRIIβ; Cy FcγRIIβ
Description: as §1

[3] = biological target: T3, CyR2a (monkey); assay: as above
T3 construct: also called monkey FcγRIIα; Cy FcγRIIα
Description: as §1

[4] = biological target: huR2a (human, UniProt P12318 36-218); assay: as above
Description: as §1

[5] = biological target: T4, FcRN; assay: BLI (AHC biosensors by Example 20); table headed FcRN Binding
T4 construct: also called neonatal Fc receptor

[6] = biological target: T1, huFcγRIIβ; assay: BLI, antibody captured on AHC biosensors, receptor in solution
Description: (§2) Example 19: Anti-FcγRIIβ antibodies were captured on AHC biosensors at a concentration of 5 μg/mL. Antigens (FcγRIIα/FcγRIIβ) were serially diluted two-fold with a starting concentration of 5u M. The biosensors with immobilized antibodies were dipped into the different antigen concentrations and kinetics data were collected.

[7] = biological target: T5, huFcγRIIα (R131) (human, UniProt P12318 36-218); assay: as above
T5 construct: R131 allotype; also called human FcγRIIα R131 (soluble antigen)
T5 sequence (looked up): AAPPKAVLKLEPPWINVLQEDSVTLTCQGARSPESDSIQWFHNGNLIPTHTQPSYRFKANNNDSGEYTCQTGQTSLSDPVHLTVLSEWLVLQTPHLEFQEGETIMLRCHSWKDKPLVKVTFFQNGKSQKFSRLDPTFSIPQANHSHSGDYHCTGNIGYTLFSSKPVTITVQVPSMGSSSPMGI
Description: as §2

[8] = biological target: T1, huFcγRIIβ; assay: BLI; ratio of the KD for huFcγRIIα (R131) to the KD for huFcγRIIβ
Description: as §2

[9] = biological target: human FcγRI (human, UniProt P12314 16-288, limits assumed); assay: BLI, antibody captured on AHC biosensors, receptor in two-fold dilutions
Description: as §2, with “20:” for “19:”, “(FcγRI or FcγRIIIα)” for “(FcγRIIα/FcγRIIβ)”, “5 μM.” for “5u M.”

[10] = biological target: human FcγRIIIα (human, UniProt P08637 17-208, limits assumed); assay: as above
Description: as §2, with “20:” for “19:”, “(FcγRI or FcγRIIIα)” for “(FcγRIIα/FcγRIIβ)”, “5 μM.” for “5u M.”

[11] = biological target: T6, human FcγRIIβ (human, UniProt P31994 46-217, limits assumed); assay: SPR, antibody captured on ProA/G HC30M chip, recombinant human FcγRIIβ injected (4 nM-5 uM); average kinetic KD
T6 construct: also called FcγRIIb; R2b
T6 sequence (looked up): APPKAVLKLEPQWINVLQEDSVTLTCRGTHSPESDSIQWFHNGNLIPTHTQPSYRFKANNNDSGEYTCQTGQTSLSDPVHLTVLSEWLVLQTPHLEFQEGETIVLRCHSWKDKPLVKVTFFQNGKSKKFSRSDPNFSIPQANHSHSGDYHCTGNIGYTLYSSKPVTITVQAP
Description: (§3) Example 52: The binding of anti-FcγRIIβ antibodies to human FcγRIIβ was evaluated. Antibodies were captured on ProA/G HC30M chip at 5 ug/mL, 1 ug/mL, and 0.2 ug/mL for 15 minutes. Six buffer injections were made over the chip followed by injections of increasing concentrations of recombinant human FcγRIIβ (4 nm-5 uM). The association was measured during each injection for 5 minutes and the dissociation was measured for 10 minutes post injection with buffer flow (1×HBSTE+ BSA).

[12] = biological target: T6, human FcγRIIβ; assay: SPR, antibody captured on ProA/G HC30M chip, recombinant human FcγRIIβ injected (4 nM-5 uM); average steady state KD
Description: as §3

Chain of human FcγRI (P12314 16-288 limits assumed): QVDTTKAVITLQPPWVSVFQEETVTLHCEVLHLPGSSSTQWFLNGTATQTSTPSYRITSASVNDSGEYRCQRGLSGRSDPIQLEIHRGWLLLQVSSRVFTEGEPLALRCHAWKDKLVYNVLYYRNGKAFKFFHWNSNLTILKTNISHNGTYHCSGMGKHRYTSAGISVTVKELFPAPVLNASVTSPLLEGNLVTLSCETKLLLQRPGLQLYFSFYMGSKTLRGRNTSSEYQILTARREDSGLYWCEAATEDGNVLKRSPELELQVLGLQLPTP
Chain of human FcγRIIIα (P08637 17-208 limits assumed): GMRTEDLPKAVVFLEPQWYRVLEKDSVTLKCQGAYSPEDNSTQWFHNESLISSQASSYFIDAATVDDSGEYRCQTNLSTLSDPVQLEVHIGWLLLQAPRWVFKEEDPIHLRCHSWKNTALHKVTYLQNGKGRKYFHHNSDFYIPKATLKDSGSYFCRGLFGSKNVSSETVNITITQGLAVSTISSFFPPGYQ

Kd [1]: 56.1 nM
Kd [2]: 1210 nM
Kd [3]: 1120 nM
Kd [4]: 633 nM
B1: TA30 (bispecific antibody, human IgG1, kappa)
heavy: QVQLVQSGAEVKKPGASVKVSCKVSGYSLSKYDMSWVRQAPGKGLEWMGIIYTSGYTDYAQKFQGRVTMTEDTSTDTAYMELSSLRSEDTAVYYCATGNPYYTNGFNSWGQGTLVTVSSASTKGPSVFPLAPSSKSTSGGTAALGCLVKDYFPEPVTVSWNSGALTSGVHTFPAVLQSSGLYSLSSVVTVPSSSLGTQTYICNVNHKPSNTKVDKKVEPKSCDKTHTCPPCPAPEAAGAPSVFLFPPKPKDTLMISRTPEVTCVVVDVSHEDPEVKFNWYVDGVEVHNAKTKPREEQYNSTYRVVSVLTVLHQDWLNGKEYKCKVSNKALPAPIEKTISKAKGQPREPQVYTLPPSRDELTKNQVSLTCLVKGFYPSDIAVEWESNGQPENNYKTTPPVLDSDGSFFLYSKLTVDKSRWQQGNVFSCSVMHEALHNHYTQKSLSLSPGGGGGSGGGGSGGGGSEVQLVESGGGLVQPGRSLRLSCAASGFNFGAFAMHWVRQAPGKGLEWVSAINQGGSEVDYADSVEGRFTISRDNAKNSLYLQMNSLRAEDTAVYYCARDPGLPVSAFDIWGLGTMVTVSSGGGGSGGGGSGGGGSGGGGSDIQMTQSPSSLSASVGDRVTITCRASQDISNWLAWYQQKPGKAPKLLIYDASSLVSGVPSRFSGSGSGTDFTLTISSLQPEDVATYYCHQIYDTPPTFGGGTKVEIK
light: DIQMTQSPSSLSASVGDRVTITCQASQSPNNLLAWYQQKPGKAPKLLIYGASDLPSGVPSRFSGSGSGTDFTLTISSLQPEDFATYYCQNNYYVGPVSYAFGGGTKVEIKRTVAAPSVFIFPPSDEQLKSGTASVVCLLNNFYPREAKVQWKVDNALQSGNSQESVTEQDSKDSTYSLSSTLTLSKADYEKHKVYACEVTHQGLSSPVTKSFNRGEC

Kd [5]: 289 nM
koff [5]: 0.118 s⁻¹
kon [5]: 407000 M⁻¹ s⁻¹
Kd [6]: 45 nM
Kd [7]: 141 nM
Fold selectivity [8]: 3 fold
Kd [1]: 299 nM
Kd [2]: 3660 nM
Kd [3]: 2300 nM
Kd [4]: 4060 nM
B2: TA36 (bispecific antibody, human IgG1, kappa)
heavy: not shown
light: DIQMTQSPSSLSASVGDRVTITCQASQSPNNLLAWYQQKPGKAPKLLIYGASDLPSGVPSRFSGSGSGTDFTLTISSLQPEDFATYYCQNNYYVGPVSYAFGGGTKVEIKRTVAAPSVFIFPPSDEQLKSGTASVVCLLNNFYPREAKVQWKVDNALQSGNSQESVTEQDSKDSTYSLSSTLTLSKADYEKHKVYACEVTHQGLSSPVTKSFNRGEC

Kd [5]: 236 nM
koff [5]: 0.0951 s⁻¹
kon [5]: 403000 M⁻¹ s⁻¹
Kd [6]: 50.2 nM
Kd [7]: 715 nM
Fold selectivity [8]: 14 fold
Kd [1]: 154 nM
Kd [2]: 3130 nM
Kd [3]: 2480 nM
Kd [4]: 6510 nM
B4: TA26 (bispecific antibody, human IgG1, kappa)
heavy: not shown
light: DIQMTQSPSSLSASVGDRVTITCQASQSPNNLLAWYQQKPGKAPKLLIYGASDLPSGVPSRFSGSGSGTDFTLTISSLQPEDFATYYCQNNYYVGPVSYAFGGGTKVEIKRTVAAPSVFIFPPSDEQLKSGTASVVCLLNNFYPREAKVQWKVDNALQSGNSQESVTEQDSKDSTYSLSSTLTLSKADYEKHKVYACEVTHQGLSSPVTKSFNRGEC

Kd [5]: 273 nM
koff [5]: 0.103 s⁻¹
kon [5]: 378000 M⁻¹ s⁻¹
Kd [6]: 11 nM
Kd [7]: 623 nM
Fold selectivity [8]: 56 fold
B9: TA28 (bispecific antibody, human IgG1, kappa)
heavy: not shown
light: DIQMTQSPSSLSASVGDRVTITCQASQSPNNLLAWYQQKPGKAPKLLIYGASDLPSGVPSRFSGSGSGTDFTLTISSLQPEDFATYYCQNNYYVGPVSYAFGGGTKVEIKRTVAAPSVFIFPPSDEQLKSGTASVVCLLNNFYPREAKVQWKVDNALQSGNSQESVTEQDSKDSTYSLSSTLTLSKADYEKHKVYACEVTHQGLSSPVTKSFNRGEC

Kd [5]: 250 nM
koff [5]: 0.1 s⁻¹
kon [5]: 400000 M⁻¹ s⁻¹
Kd [6]: 30.3 nM
Kd [7]: 115 nM
Fold selectivity [8]: 4 fold
B11: TA39 (bispecific antibody, human IgG1, kappa)
heavy: not shown
light: DIQMTQSPSSLSASVGDRVTITCQASQSPNNLLAWYQQKPGKAPKLLIYGASDLPSGVPSRFSGSGSGTDFTLTISSLQPEDFATYYCQNNYYVGPVSYAFGGGTKVEIKRTVAAPSVFIFPPSDEQLKSGTASVVCLLNNFYPREAKVQWKVDNALQSGNSQESVTEQDSKDSTYSLSSTLTLSKADYEKHKVYACEVTHQGLSSPVTKSFNRGEC

More lines, now with the values behind:

B3: TA25 (bispecific antibody, human IgG1, kappa)
heavy: not shown
light: DIQMTQSPSSLSASVGDRVTITCQASQSPNNLLAWYQQKPGKAPKLLIYGASDLPSGVPSRFSGSGSGTDFTLTISSLQPEDFATYYCQNNYYVGPVSYAFGGGTKVEIKRTVAAPSVFIFPPSDEQLKSGTASVVCLLNNFYPREAKVQWKVDNALQSGNSQESVTEQDSKDSTYSLSSTLTLSKADYEKHKVYACEVTHQGLSSPVTKSFNRGEC
Kd [5]: 231 nM
koff [5]: 0.0788 s⁻¹
kon [5]: 341000 M⁻¹ s⁻¹
Kd [6]: 122 nM
Kd [7]: 114000 nM
Fold selectivity [8]: 934 fold
Kd [1]: 253 nM
Kd [2]: 1500 nM
Kd [3]: 777 nM
Kd [4]: 6080 nM

B5: TA25 (bispecific antibody, human IgG1, kappa)
heavy: not shown
light: DIQMTQSPSSLSASVGDRVTITCQASQSPNNLLAWYQQKPGKAPKLLIYGASDLPSGVPSRFSGSGSGTDFTLTISSLQPEDFATYYCQNNYYVGPVSYAFGGGTKVEIKRTVAAPSVFIFPPSDEQLKSGTASVVCLLNNFYPREAKVQWKVDNALQSGNSQESVTEQDSKDSTYSLSSTLTLSKADYEKHKVYACEVTHQGLSSPVTKSFNRGEC
binding result [9]: no binding (tested: 5 µM starting concentration)
binding result [10]: no binding (tested: 5 µM starting concentration)

B6: TA26 (bispecific antibody, human IgG1, kappa)
heavy: not shown
light: DIQMTQSPSSLSASVGDRVTITCQASQSPNNLLAWYQQKPGKAPKLLIYGASDLPSGVPSRFSGSGSGTDFTLTISSLQPEDFATYYCQNNYYVGPVSYAFGGGTKVEIKRTVAAPSVFIFPPSDEQLKSGTASVVCLLNNFYPREAKVQWKVDNALQSGNSQESVTEQDSKDSTYSLSSTLTLSKADYEKHKVYACEVTHQGLSSPVTKSFNRGEC
binding result [9]: no binding (tested: 5 µM starting concentration)
binding result [10]: no binding (tested: 5 µM starting concentration)

B7: TA39 (bispecific antibody, human IgG1, kappa)
heavy: not shown
light: DIQMTQSPSSLSASVGDRVTITCQASQSPNNLLAWYQQKPGKAPKLLIYGASDLPSGVPSRFSGSGSGTDFTLTISSLQPEDFATYYCQNNYYVGPVSYAFGGGTKVEIKRTVAAPSVFIFPPSDEQLKSGTASVVCLLNNFYPREAKVQWKVDNALQSGNSQESVTEQDSKDSTYSLSSTLTLSKADYEKHKVYACEVTHQGLSSPVTKSFNRGEC
binding result [9]: no binding (tested: 5 µM starting concentration)
binding result [10]: no binding (tested: 5 µM starting concentration)

B8: TA36 (bispecific antibody, human IgG1, kappa)
heavy: not shown
light: DIQMTQSPSSLSASVGDRVTITCQASQSPNNLLAWYQQKPGKAPKLLIYGASDLPSGVPSRFSGSGSGTDFTLTISSLQPEDFATYYCQNNYYVGPVSYAFGGGTKVEIKRTVAAPSVFIFPPSDEQLKSGTASVVCLLNNFYPREAKVQWKVDNALQSGNSQESVTEQDSKDSTYSLSSTLTLSKADYEKHKVYACEVTHQGLSSPVTKSFNRGEC
binding result [9]: no binding (tested: 5 µM starting concentration)
binding result [10]: no binding (tested: 5 µM starting concentration)

B10: TA28 (bispecific antibody, human IgG1, kappa)
heavy: not shown
light: DIQMTQSPSSLSASVGDRVTITCQASQSPNNLLAWYQQKPGKAPKLLIYGASDLPSGVPSRFSGSGSGTDFTLTISSLQPEDFATYYCQNNYYVGPVSYAFGGGTKVEIKRTVAAPSVFIFPPSDEQLKSGTASVVCLLNNFYPREAKVQWKVDNALQSGNSQESVTEQDSKDSTYSLSSTLTLSKADYEKHKVYACEVTHQGLSSPVTKSFNRGEC
binding result [9]: no binding (tested: 5 µM starting concentration)
binding result [10]: no binding (tested: 5 µM starting concentration)

B12: ARB40 (antibody, human IgG1, kappa)
heavy: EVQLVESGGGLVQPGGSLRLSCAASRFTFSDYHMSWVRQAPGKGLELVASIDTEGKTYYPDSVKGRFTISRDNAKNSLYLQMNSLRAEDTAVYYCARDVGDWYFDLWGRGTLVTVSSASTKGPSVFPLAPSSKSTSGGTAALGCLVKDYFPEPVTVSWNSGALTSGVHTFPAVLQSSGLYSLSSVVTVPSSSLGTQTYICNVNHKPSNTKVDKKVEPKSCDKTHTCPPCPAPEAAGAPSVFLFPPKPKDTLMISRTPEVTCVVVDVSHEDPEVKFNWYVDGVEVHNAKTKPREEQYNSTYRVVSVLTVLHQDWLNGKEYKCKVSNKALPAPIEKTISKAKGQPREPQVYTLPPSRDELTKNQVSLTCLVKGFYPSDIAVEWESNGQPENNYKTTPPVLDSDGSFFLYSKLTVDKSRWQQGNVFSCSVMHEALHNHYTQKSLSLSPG
light: DIVMTQSPLSLPVTPGEPASISCRSSRSLVHGSGDNYLHWYLQKPGQSPQLLIYMASNRAPGVPDRFSGSGSGTDFTLKISRVEAEDVGVYYCMQALRAPFSFGGGTKVEIKRTVAAPSVFIFPPSDEQLKSGTASVVCLLNNFYPREAKVQWKVDNALQSGNSQESVTEQDSKDSTYSLSSTLTLSKADYEKHKVYACEVTHQGLSSPVTKSFNRGEC
notes: copies: 2 + 2
Kd [11]: 120 nM
Kd [12]: 120 nM
